# Results from the DeepSol protein solubility set.
# Assay: soluble on expression in E. coli; label from the status in PepcDB or PDB records
row,Sequence,soluble on expression in E. coli
1,MGSDKIHHHHHHMYEEIIEKLDLQMNRMISFLSKKMRLFFQDLEKRFTNRAILLYGPRGAGKTTFLLSMARKHGFLYVSGDEILLLDVPLHDLFQEIMKNYPGIIIDEVHLLKNWSTILKVLYDSFPDKVIWTSDSSSVLLRKGISDLSRRFVLIRMPLMSFREFIHFETGKTLRKLSSPFEVSIDYAAEALKEVDLMSLFRKYRETGTRPFYVEGNFREKLMNILQKAIYYDVPHFLGTVTENHLGVMKAIVGHLLHSKIPTINVESMCREWGVGKQKFYQLLQTMEEIELVNIVRKKRVEKPFSKGEKIFLSDPAMYYAFEGEIGNFREAFVVFALKEIGKIYAVKNEEEGDYVFEGIKIEVGGKSKKKKSSDFVIRDDVDLPVRNVIPMWMLGMLW,not soluble
2,MGSDKIHHHHHHLNTLKTNAMEIFKQAVSTLNNPEVQGWKQQGGKVVGYFYSYIPEELITAAGLLPYKIRGIGSPGAAMADKYFTHNVCSLVRDTFELVLKGECDFLDGVINFNGCDHIRRISDNWQSLENNPCFHFLVLPKKVGKEQTERYREELVSLKASIEKRFNLVISEDKLKEAIRLHNKKRQLQRRLYELKKRENPPLSGAETLTVMIAGTVMPVARYNRLLAELIDELSISEGKKPNARLMLIGGELDNPELLKILESQGGMVVSDTMALGAREIACDVSETEDGLTALARYHMEDKPPCPRLYGTFQERFDFIRKTAREYQVDGVISLRFLLCDIWGFEQNDIAEILRTEKLPYLKLETEYALTNAGQLKTRVQAFVETLGEV,not soluble
3,MGSDKIHHHHHHMSKILMVGSGPVAIQLARLCNLHGEHMVDMVSRVHASTKSKRVFDAYHRDGFFSVMTQNDAHQCFSGKFTVRHFFKDVKDITQYYDVVILACTADAYRPILQQLSKSTLKRIKQIILVSPTLGSHMLVKQILSDVHCEGEVISFSTYLGDTRIFDKAQPHCVLTTRVKSKLFVGSTHSQSITLYKLKSLFDYLNIELTTMDTPLHAEIHNSSLYVHPPLFMNQFSLKAVFEGTKVPVYVYKLFPEGPITMTLIHEMRLMWQEMMMILKKLKVPSVNLLKFMVKENYPIRDETMREVDIESFENLSAIHQEYLLYVRYTAILIDPFSNPDDQGAYFDFSAVPYKHVDTDEQGVIHIPRMPSEDYYRTLMIQAIGRALNVATPMIDTMLLRYETTVKQYCDTHLHQQLSKQFELHHFKQDLALVTNYLTFYR,not soluble
4,MATKKCINGHQYDSSIYGDNCPFCPSSHSTRVLDDDTTTGKTQVLGGNMNAETDTIDLGKSGQNNPGGATVIRHVNPTGGTGMASDNRRLVGLLVSYDQNPMGEVYKIYEGRNVIGRAATSDIPIPGDSNMSSQHLLILYREAEGIFWAADQNSSNGTYINGTFVGDRVQLYTNDVIVLGATKMIFLAIPQ,not soluble
5,ILPQPDVRVNQVGYLPEGKKVATVVCNSTQPVKWQLKNAAGVVVLEGYTEPKGLDKDSQDYVHWLDFSDFATEGIGYYFELPTVNSPTNYSHPFDIRKDIYTQMKYDALAFFYHKRSGIPIEMPYAGGEQWTRPAGHIGIEPNKGDTNVPTWPQDDEYAGIPQKNYTKDVTGGWYDAGDHGKYVVNGGIAVWTLMNMYERAKIRGLDNWGPYRDGGMNIPEQNNGYPDILDEARWEIEFFKKMQVTEKEDPSIAGMVHHKIHDFRWTALGMLPHEDPQPRYLRPVSTAATLNFAATLAQSARLWKDYDPTFAADCLEKAEIAWQAALKHPDIYAEYTPGSGGPGGGPYNDDYVGDEFYWAACELYVTTGKDEYKNYLMNSPHYLEMPAKMGENGGANGEDNGLWGCFTWGTTQGLGTITLALVENGLPATDIQKARNNIAKAADRWLENIEEQGYRLPIKQAEDERGGYPWGSNSFILNQMIVMGYAYDFTGDSKYLDGMFDGISYLLGRNAMDQSYVTGYGERPLQNPHDRFWTPQTSKRFPAPPPGIISGGPNSRFEDPTINAAVKKDTPPQKCFIDHTDSWSTNEITVNWNAPFAWVTAYLDQYTD,soluble
6,MRTQTFPPSSSSSRTTHPKKNRHSSNSSSMALVTPAKSSTGAAPKQSSQSGWDYWTRVYSDDAQTTGTPRDVRISDMLSSESLIRAKLLFLNVPSLPSAHKNIILNLVKRELNHDISIQDVVVVPPAKWFLNFYRPEDALKVMKHLNGYSYRGHILAVRFCYPDGTYGDESALTELVQCTNSAKGRILEKKDIVQDTFAVECWTKTEFDSLKVFEKELTNLLKAHAYLPYHTVLQSMRNLFTCKVQSELSSMFISDALAQWPTGLIRIFNRNVKVVSNTMCLSSSSYYTQRIHDSALEGGCSVHRNSWEPTVPDDIRSEVQLIQYTNSFLGHFGPQNIDVDIPIRILAQSLRGTWPKTGPKLAALLTEISSGFVLINRVLYLSSNLHHHEKIIDNLACFQDDCTDVYFLPLSCTTEDQKGKTVDYEDI,not soluble
7,MTEMELKLIKIDTSHYFEKKPGLGERVDYAGRCFYNKFQRVNAMLTSSLIQKHLKREIEIAHNLILRNDKVENIVFDYNGRNPERFYHKAQLLLREEGFMNFTAYNTKTPGHLHLYVHKGHTELGEGERLVKTLSMKLAQGLPKEWKVFPSNEWPKEFNILALPYEVFAKERGSSWAKHL,soluble
8,MTLLRGTVRTKTSCQLVSAIGTQNCTVWEGYEVSEITPGNSNTSYITWKRSVPNTNLSQPITSCPASTVKFPTCKVGWKLFPRYNTYWCLTLGINRRERDGYLLQFDQSFSYVACRWDGSEFIDGRISGLESNEERAYATDRAYQIMKQNMRETLFVFPSNVRLGWGVWVDGVKDVAGQVKYSDTTLNLKLGYKWDIGQPNWVSRKQACVMLMVPVNQSSRSNGSLRTAEYLRSI,not soluble
9,MGSDKIHHHHHHMDITQLKMFQTVVECGTMAKASLQLHCVPSNITTRIKQLEEELGAPLFYREGKSLKLTPSGEIFLDYCHKILALCDEAKRSIHPDAPPSGPLKIGAIESSATTRLPNLLAKYHQRYPEVSIQIITGTWKQLLVDISQHKLDGAIVAGNIEFPMLNKLSIYQEDMVLIASHSLGEIRCQEDLIGKEIFMWTEGCPYRAALEEWLKLKNISLPITSITSYATIIGCVSAGSGVALVPKSIYEQYKNLAHIQSYKFEYLAFMQNHFFWHKNVSNHKARDMFIELIKSEFCL,not soluble
10,MGSDKIHHHHHHMIKIKKSEDCCGCSACLSICNHNAIVFKEDVEGFKYPMIEEGKCINCGLCEMACPILYRKVKDIRPTPKAYFAARHKNIVTLRNSSSGGAFTAIAGSVIELGGVVCGVEYDNDGVVRHSFSETMEGIRSFMGSKYVQSEIQGVYNQIKTYLKSDRWVLFTGSPCQVEGLKLFLRKPYENLLTVDLVCHAVPSPLIYKQYINMCSTKLGQKVMSINMRYKQTYGWSHRFSYCFYFENGQKAVDPVWVVNWGKIFFSQMINRPSCHSCKYSNLDRPGDFTIADFWDDKKNRPDLYSCEGTSLLMVNTNMGLDLINKLYDSIDLWKITKDEAMQPCLIRPTCSNQRRQEFWEFYLLRGFDAAYKKYFGDSKYVITKKIVKQIIKRVLRKLQ,not soluble
11,GHMKQSHFFAHLSRLKLINRWPLMRNVRTENVSEHSLQVAMVAHALAAIKNRKFGGNVNAERIALLAMYHDASEVLTGDLPTPVKYFNSQIAQEYKAIEKIAQQKLVDMVPEELRDIFAPLIDEHAYSDEEKSLVKQADALCAYLKCLEELAAGNNEFLLAKTRLEATLEARRSQEMDYFMEIFVPSFHLSLDEISQDSPL,soluble
12,MSLDFRSADFLRTHISDTMAFYHPRCIDSAGGFFHYFRDDGSIYNATHRHLVSSTRFVFNYAMAYLQFGTAEYLDAVHHGLSYVRDVHRNPATGGYAWTLCDDRVEDDTNHCYGLAFVMLAYSCGLKVGIKQAREWMDETWCLLERHFWDAEYGLYKDEADAQWNFTRYRGQNANMHMCEAMLAAYEASGEQRYLERALVLADRITRRQAAKADGLVWEHYDMRWEVDWDYNRDNPKHLFRPWGFQPGHQTEWAKLLLILDRYIEVEWLVPVARSLFDVAVARSWDAVRGGLCYGFAPDGTICDDDKYFWVQAESLAAAALLATRSGDERYWQWYDRLWAYAWQHMVDHRYGAWYRLLDGDNRKYNDEKSPAGKTDYHTMGACHEVLNVVWTKSEGHHHHHH,soluble
13,MGSDKIHHHHHHMKSNGHATRLRTTPSLGGQSHDTRARMIEAAIEVFGSVGYDGATTRQLAERAGVNQAAIPYHFGGKRELYVAAAQAIADYMRSRIEPLIDELRTASVDPVGHIDAVVMRFFQFIAGDEEPEAWTVFFVRCERDADDAFRIIYYQSVARFQAALIAEVAAATGRSPDDEDLKVRVAVVLGAISNFRTLRNVMLSSLGWDTFDAERKLTVETAVRRLALAELLGIHADAPSDVHPPLGSASGAQPSPTARP,not soluble
14,MGSDKIHHHHHHMASSIQGQENVMSQSEFDSALPNGIGLAPYLRMKQEGMTENESRIVEWLLKPGNLSCAPAIKDVAEALAVSEAMIVKVSKLLGFSGFRNLRSALEDYFSQSEQVLPSELAFDEAPQDVVNKVFNITLRTIMEGQSIVNVDEIHRAARFFYQARQRDLYGAGGSNAICADVQHKFLRIGVRCQAYPDAHIMMMSASLLQEGDVVLVVTHSGRTSDVKAAVELAKKNGAKIICITHSYHSPIAKLADYIICSPAPETPLLGRNASARILQLTLLDAFFVSVAQLNIEQANINMQKTGAIVDFFSPGALK,not soluble
15,MSLTVNNVGLRYGDKKLFEDVSIKFLPGNCYGLIGANGAGKSTFLKVLSGELDSQSGNVHIGSGERLAVLRQDHFQYDNELVLNTVIMGHERLYKIMDEKNAIYMKEDFSDEDGIRAAELEGEFAELDGWEAESDAAVLLNGLGIPTDLHGKLMKDLTGGEKVKVLLAQALFGKPDILLLDEPTNHLDIRAIHWLEEFLINFDNTVIVVSHDRHFLNKVCTHIADLDFSKIKLYVGNYDFWYESSQLAQTMMGDRNKKKEEKMKELQDFIARFSANASKSKQATSRKKMLEKITLEDIQPSSRRYPFIQFKPDREVGNDLLTVTNLSKTIDGVKILDNLSFSINRNDKVALVGDDEVAKTVLFQILAGEMEPDEGSYKWGITTSQSYFPKDNSEFFEENDMSLVEWLRQFSPEDDSEAFLRGFLGRMLFSGDEVLKKVRVLSGGEKVRCMLSKMMLSGSNVLLLDEPTNHLDLESITALNNGLEAFKGAMIFASHDHQLLQTIATRIINLSKDQFYNKEISYDEYLKEVMNVAEGHHHHHH,soluble
16,MKDTVMMKLNTKESMAQIDGQTIYFKQIGEGKPPLLMLHGFGGSSDGFSDIYPELARDHTIIAVDILGFGRSSKPVDFQYSFPAQVNLYYKLMKKLGYNQFAVLGHSMGGEMSLNLAYLYPDAVTHLILADATGIESFQQKESYEVPPLSTDLQTVTEITKYNKNEVKNSRDDKEHYDQLTKMRERRIAMEADKIKVPTLIIWGRHDKSVSWKNGELYHGLFANSTFHIIEKGYHAPFRQEPIEFMEYVQAFFAKHPQ,not soluble
17,MGHHHHHHSHEVFKNAQPPIRDATDLRENMQNAVVSFKELCGLSSVANLMQCMLAVSPRFLGPDNTPLVVLNLSEQYPTMELQGIVPEVLKKIVTTYDMMIQSLKALIENADAVYEKIVHCQKAAMEFHEHLHSIGTKEGLKERKLQKAVESFTWNITILKGQADLLKYAKNETLENLKQIHFAAVSCGLNKPGTENADVQKPRRSLEVIPEKANDETGE,not soluble
